Numbered stars: 1 amine (or outer) side, 2 acyl side, 3 side chain; on linkers, the order of the positions; unused ones are H or OH. Bridge positions count the residues as written; N and C are the ends. * marks the point of attachment. C20 diacid = O=C(O)CCCCCCCCCCCCCCCCCCC(=O)*; γGlu = O=C(O)[C@H](CCC(=O)[*:2])N[*:1]
T1: human amylin receptor (human, UniProt P30988 25-474; O60896 24-148, limits assumed)
T1 construct: whole, on cells; Calcitonin receptor plus RAMP-3 gives the amylin 3(a) receptor; membranes of Amylin 3(a)/CRE-luc cells were used; also called hAmylin-R; hAmylinR
T1 sequence (looked up) 1: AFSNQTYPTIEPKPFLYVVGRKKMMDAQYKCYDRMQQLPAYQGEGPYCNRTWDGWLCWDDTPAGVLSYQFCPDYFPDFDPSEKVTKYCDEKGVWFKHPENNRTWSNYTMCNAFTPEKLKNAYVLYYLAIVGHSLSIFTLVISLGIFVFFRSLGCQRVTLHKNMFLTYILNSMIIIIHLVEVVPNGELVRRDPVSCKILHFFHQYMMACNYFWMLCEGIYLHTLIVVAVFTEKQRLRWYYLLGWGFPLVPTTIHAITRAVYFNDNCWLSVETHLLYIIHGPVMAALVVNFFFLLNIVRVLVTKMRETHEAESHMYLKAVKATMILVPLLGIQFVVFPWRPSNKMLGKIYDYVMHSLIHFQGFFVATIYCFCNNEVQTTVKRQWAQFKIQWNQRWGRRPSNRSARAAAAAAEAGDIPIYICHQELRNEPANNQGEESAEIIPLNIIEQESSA
T1 sequence (looked up) 2: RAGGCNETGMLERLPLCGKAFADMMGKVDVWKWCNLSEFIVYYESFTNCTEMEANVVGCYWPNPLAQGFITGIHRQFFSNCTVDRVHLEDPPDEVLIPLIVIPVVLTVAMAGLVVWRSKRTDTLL

B1: N^α1-[(4S)-4-carboxy-4-(19-carboxynonadecanoylamino)butanoyl]-[Glu14,Arg17,Pro21,Pro27,Pro31]-h-amylin (peptide)
peptide: {C20 diacid-γGlu}-KCNTATCATQRLAEFLRHSSPNFGAIPSSTPVGSNTY-NH2
modifications: disulfide 2-7
SMILES: CC[C@H](C)[C@H](NC(=O)[C@H](C)NC(=O)CNC(=O)[C@H](Cc1ccccc1)NC(=O)[C@H](CC(N)=O)NC(=O)[C@@H]1CCCN1C(=O)[C@H](CO)NC(=O)[C@H](CO)NC(=O)[C@H](Cc1c[nH]cn1)NC(=O)[C@H](CCCNC(=N)N)NC(=O)[C@H](CC(C)C)NC(=O)[C@H](Cc1ccccc1)NC(=O)[C@H](CCC(=O)O)NC(=O)[C@H](C)NC(=O)[C@H](CC(C)C)NC(=O)[C@H](CCCNC(=N)N)NC(=O)[C@H](CCC(N)=O)NC(=O)[C@@H](NC(=O)[C@H](C)NC(=O)[C@@H]1CSSC[C@H](NC(=O)[C@H](CCCCN)NC(=O)CC[C@H](NC(=O)CCCCCCCCCCCCCCCCCCC(=O)O)C(=O)O)C(=O)N[C@@H](CC(N)=O)C(=O)N[C@@H]([C@@H](C)O)C(=O)N[C@@H](C)C(=O)N[C@@H]([C@@H](C)O)C(=O)N1)[C@@H](C)O)C(=O)N1CCC[C@H]1C(=O)N[C@@H](CO)C(=O)N[C@@H](CO)C(=O)N[C@H](C(=O)N1CCC[C@H]1C(=O)N[C@H](C(=O)NCC(=O)N[C@@H](CO)C(=O)N[C@@H](CC(N)=O)C(=O)N[C@H](C(=O)N[C@@H](Cc1ccc(O)cc1)C(N)=O)[C@@H](C)O)C(C)C)[C@@H](C)O
notes: also called 14E, 17R, 21P, 27P, 31P
B2: N^α1-[(4S)-4-carboxy-4-(19-carboxynonadecanoylamino)butanoyl]-[Glu14,Arg17,Pro21,Pro27,Pro34]-h-amylin (peptide)
peptide: {C20 diacid-γGlu}-KCNTATCATQRLAEFLRHSSPNFGAIPSSTNVGPNTY-NH2
modifications: disulfide 2-7
SMILES: CC[C@H](C)[C@H](NC(=O)[C@H](C)NC(=O)CNC(=O)[C@H](Cc1ccccc1)NC(=O)[C@H](CC(N)=O)NC(=O)[C@@H]1CCCN1C(=O)[C@H](CO)NC(=O)[C@H](CO)NC(=O)[C@H](Cc1c[nH]cn1)NC(=O)[C@H](CCCNC(=N)N)NC(=O)[C@H](CC(C)C)NC(=O)[C@H](Cc1ccccc1)NC(=O)[C@H](CCC(=O)O)NC(=O)[C@H](C)NC(=O)[C@H](CC(C)C)NC(=O)[C@H](CCCNC(=N)N)NC(=O)[C@H](CCC(N)=O)NC(=O)[C@@H](NC(=O)[C@H](C)NC(=O)[C@@H]1CSSC[C@H](NC(=O)[C@H](CCCCN)NC(=O)CC[C@H](NC(=O)CCCCCCCCCCCCCCCCCCC(=O)O)C(=O)O)C(=O)N[C@@H](CC(N)=O)C(=O)N[C@@H]([C@@H](C)O)C(=O)N[C@@H](C)C(=O)N[C@@H]([C@@H](C)O)C(=O)N1)[C@@H](C)O)C(=O)N1CCC[C@H]1C(=O)N[C@@H](CO)C(=O)N[C@@H](CO)C(=O)N[C@H](C(=O)N[C@@H](CC(N)=O)C(=O)N[C@H](C(=O)NCC(=O)N1CCC[C@H]1C(=O)N[C@@H](CC(N)=O)C(=O)N[C@H](C(=O)N[C@@H](Cc1ccc(O)cc1)C(N)=O)[C@@H](C)O)C(C)C)[C@@H](C)O
notes: also called 14E, 17R, 21P, 27P, 34P
B3: N^α1-[(4S)-4-carboxy-4-(19-carboxynonadecanoylamino)butanoyl]-[Glu14,Arg17,Pro21,Pro27,Pro37]-h-amylin (peptide)
peptide: {C20 diacid-γGlu}-KCNTATCATQRLAEFLRHSSPNFGAIPSSTNVGSNTP-NH2
modifications: disulfide 2-7
SMILES: CC[C@H](C)[C@H](NC(=O)[C@H](C)NC(=O)CNC(=O)[C@H](Cc1ccccc1)NC(=O)[C@H](CC(N)=O)NC(=O)[C@@H]1CCCN1C(=O)[C@H](CO)NC(=O)[C@H](CO)NC(=O)[C@H](Cc1c[nH]cn1)NC(=O)[C@H](CCCNC(=N)N)NC(=O)[C@H](CC(C)C)NC(=O)[C@H](Cc1ccccc1)NC(=O)[C@H](CCC(=O)O)NC(=O)[C@H](C)NC(=O)[C@H](CC(C)C)NC(=O)[C@H](CCCNC(=N)N)NC(=O)[C@H](CCC(N)=O)NC(=O)[C@@H](NC(=O)[C@H](C)NC(=O)[C@@H]1CSSC[C@H](NC(=O)[C@H](CCCCN)NC(=O)CC[C@H](NC(=O)CCCCCCCCCCCCCCCCCCC(=O)O)C(=O)O)C(=O)N[C@@H](CC(N)=O)C(=O)N[C@@H]([C@@H](C)O)C(=O)N[C@@H](C)C(=O)N[C@@H]([C@@H](C)O)C(=O)N1)[C@@H](C)O)C(=O)N1CCC[C@H]1C(=O)N[C@@H](CO)C(=O)N[C@@H](CO)C(=O)N[C@H](C(=O)N[C@@H](CC(N)=O)C(=O)N[C@H](C(=O)NCC(=O)N[C@@H](CO)C(=O)N[C@@H](CC(N)=O)C(=O)N[C@H](C(=O)N1CCC[C@H]1C(N)=O)[C@@H](C)O)C(C)C)[C@@H](C)O
notes: also called 14E, 17R, 21P, 27P, 37P
B4: N^α1-[(4S)-4-carboxy-4-(19-carboxynonadecanoylamino)butanoyl]-[Glu14,Arg17,Pro21,Pro27]-h-amylin (peptide)
peptide: KCNTATCATQRLAEFLRHSSPNFGAIPSSTNVGSNTY
modifications: C20 diacid-gGlu on the alpha amino group of the N-terminal residue; disulfide Cys2-Cys7 and C-terminal amide as in human amylin
notes: also called 14E, 17R, 21P, 27P
B5: N^α1-[(4S)-4-carboxy-4-[[(4S)-4-carboxy-4-(19-carboxynonadecanoylamino)butanoyl]amino]butanoyl]-[Glu14,Arg17,Pro21,Pro27,Pro37]-h-amylin (peptide)
peptide: {C20 diacid-γGlu-γGlu}-KCNTATCATQRLAEFLRHSSPNFGAIPSSTNVGSNTP-NH2
modifications: disulfide 2-7
SMILES: CC[C@H](C)[C@H](NC(=O)[C@H](C)NC(=O)CNC(=O)[C@H](Cc1ccccc1)NC(=O)[C@H](CC(N)=O)NC(=O)[C@@H]1CCCN1C(=O)[C@H](CO)NC(=O)[C@H](CO)NC(=O)[C@H](Cc1c[nH]cn1)NC(=O)[C@H](CCCNC(=N)N)NC(=O)[C@H](CC(C)C)NC(=O)[C@H](Cc1ccccc1)NC(=O)[C@H](CCC(=O)O)NC(=O)[C@H](C)NC(=O)[C@H](CC(C)C)NC(=O)[C@H](CCCNC(=N)N)NC(=O)[C@H](CCC(N)=O)NC(=O)[C@@H](NC(=O)[C@H](C)NC(=O)[C@@H]1CSSC[C@H](NC(=O)[C@H](CCCCN)NC(=O)CC[C@H](NC(=O)CC[C@H](NC(=O)CCCCCCCCCCCCCCCCCCC(=O)O)C(=O)O)C(=O)O)C(=O)N[C@@H](CC(N)=O)C(=O)N[C@@H]([C@@H](C)O)C(=O)N[C@@H](C)C(=O)N[C@@H]([C@@H](C)O)C(=O)N1)[C@@H](C)O)C(=O)N1CCC[C@H]1C(=O)N[C@@H](CO)C(=O)N[C@@H](CO)C(=O)N[C@H](C(=O)N[C@@H](CC(N)=O)C(=O)N[C@H](C(=O)NCC(=O)N[C@@H](CO)C(=O)N[C@@H](CC(N)=O)C(=O)N[C@H](C(=O)N1CCC[C@H]1C(N)=O)[C@@H](C)O)C(C)C)[C@@H](C)O
notes: as for B3
B6: N^α1N^α1-[(4S)-4-carboxy-4-(19-carboxynonadecanoylamino)butanoyl]-[Glu14,Arg17,Pro21,Pro27,Glu35]-h-amylin (peptide)
peptide: {C20 diacid-γGlu}-KCNTATCATQRLAEFLRHSSPNFGAIPSSTNVGSETY-NH2
modifications: disulfide 2-7
SMILES: CC[C@H](C)[C@H](NC(=O)[C@H](C)NC(=O)CNC(=O)[C@H](Cc1ccccc1)NC(=O)[C@H](CC(N)=O)NC(=O)[C@@H]1CCCN1C(=O)[C@H](CO)NC(=O)[C@H](CO)NC(=O)[C@H](Cc1c[nH]cn1)NC(=O)[C@H](CCCNC(=N)N)NC(=O)[C@H](CC(C)C)NC(=O)[C@H](Cc1ccccc1)NC(=O)[C@H](CCC(=O)O)NC(=O)[C@H](C)NC(=O)[C@H](CC(C)C)NC(=O)[C@H](CCCNC(=N)N)NC(=O)[C@H](CCC(N)=O)NC(=O)[C@@H](NC(=O)[C@H](C)NC(=O)[C@@H]1CSSC[C@H](NC(=O)[C@H](CCCCN)NC(=O)CC[C@H](NC(=O)CCCCCCCCCCCCCCCCCCC(=O)O)C(=O)O)C(=O)N[C@@H](CC(N)=O)C(=O)N[C@@H]([C@@H](C)O)C(=O)N[C@@H](C)C(=O)N[C@@H]([C@@H](C)O)C(=O)N1)[C@@H](C)O)C(=O)N1CCC[C@H]1C(=O)N[C@@H](CO)C(=O)N[C@@H](CO)C(=O)N[C@H](C(=O)N[C@@H](CC(N)=O)C(=O)N[C@H](C(=O)NCC(=O)N[C@@H](CO)C(=O)N[C@@H](CCC(=O)O)C(=O)N[C@H](C(=O)N[C@@H](Cc1ccc(O)cc1)C(N)=O)[C@@H](C)O)C(C)C)[C@@H](C)O
notes: also called 14E, 17R, 21P, 27P, 35E

These binders were tested against T1, human amylin receptor (assay: SPA competition binding, displacement of 125I-rat amylin from membranes with human amylin 3(a) receptor (Assay V)).
Method: The binding assay was performed using scintillation proximity assay (SPA) beads (RPNQ0001) from PerkinElmer and cell membranes from the Amylin 3(a)/CRE-luc cells (as described in Assay (II)) were used. Membranes were prepared in the following way; the cells were rinsed with PBS and incubated with Versene for approximately 5 min before harvesting. The cells were flushed with PBS and the cell-suspension was centrifuged for 5 min at 1000 rpm. Cells were homogenized (ultrathurrax) in a buffer containing 20 mM Na-HEPES and 10 mM EDTA (pH 7.4) and centrifuged at 20.000 rpm for 15 min. The resulting pellet was resuspended, homogenized and centrifuged (20.000 rpm, 15 min) in a buffer containing 20 mM Na-HEPES and 0.1 mM EDTA (pH 7.4, buffer 2). The resulting pellet was resuspended in buffer 2 and protein concentration was measured (BCA protein Assay, Pierce). The homogenate was kept cold during the whole procedure. The membranes were kept at −80° C. until use. The assay was performed in a 384 well Optiplate (PerkinElmer) in a total volume of 40 ul. Membranes were mixed with SPA beads. Final concentration of membranes 35 ng/μL final and SPA beads was 0.05 mg/well. Test-compounds were dissolved in DMSO and further diluted in assay buffer (50 mM Hepes, pH 7.4, 1 mM CaCl2, 5 mM MgCl₂, 0.1% OA and 0.02% Tween20). […] The final mixture was incubated with shaking at 400 rpm for 120 min at 25° C. prior to centrifugation (1500 rpm, 10 min). Samples were analyzed on TopCounter™ (Packard). The IC₅₀ was calculated using (one site binding competition analysis) GraphPad Prism5 as a measure of receptor affinity.

Binder	IC50
B1	204 pM
B2	100 pM
B3	72 pM
B4	143 pM
B5	196 pM
B6	794 pM

Source: patent publication US20140087995A1 (published 2014)
